The results in this text go back to article PMC4254770.

The target in this experiment is maltose binding protein (MBP)-tagged ubiquitin. The experiment in a line: ELISA. Background: An ELISA detects its analyte on a solid surface through an enzyme-linked reagent.

As for “GST-tagged SUVR1 WIYLD domain (domain or fragment)”, the binding in ELISA relative to S4WIYLD (set to 1) (relative to S4WIYLD = 1) turned out to be 0.65. Consider “GST-tagged SUVR2 WIYLD domain (domain or fragment)”, for which the binding in ELISA relative to S4WIYLD (set to 1) (relative to S4WIYLD = 1) amounted to 1.23. “GST-tagged SUVR4 WIYLD domain A32E (domain or fragment)” gave a reduction of binding relative to wild-type S4WIYLD of 37%.
